We go through 2 substances from PMC3994145.

Assay [1] deals with human FcγRIIIa/158V on Jurkat cells (human).
For assay [2], the target named is human FcγRIIa/131H on Jurkat cells (human) (UniProt P12318).
UniProt P12318, sequence (P12318 34-317): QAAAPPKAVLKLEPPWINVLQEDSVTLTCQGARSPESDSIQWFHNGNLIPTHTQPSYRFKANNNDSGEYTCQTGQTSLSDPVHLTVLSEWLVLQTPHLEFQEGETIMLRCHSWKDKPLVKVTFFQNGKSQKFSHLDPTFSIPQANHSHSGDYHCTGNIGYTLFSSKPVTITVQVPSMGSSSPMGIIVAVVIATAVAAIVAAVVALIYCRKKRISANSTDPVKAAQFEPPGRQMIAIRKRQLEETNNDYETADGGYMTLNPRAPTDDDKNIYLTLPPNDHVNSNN

human FcγRIIIa/158V on Jurkat cells (human), sequence (P08637 17-208): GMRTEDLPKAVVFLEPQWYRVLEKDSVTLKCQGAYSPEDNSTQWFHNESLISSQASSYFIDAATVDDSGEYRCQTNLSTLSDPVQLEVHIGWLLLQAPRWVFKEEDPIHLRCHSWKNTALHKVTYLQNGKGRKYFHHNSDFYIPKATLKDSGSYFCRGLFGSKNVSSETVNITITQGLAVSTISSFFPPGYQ

“rituximab (wild-type, anti-CD20 mAb, IgG1) (antibody)” had an EC50 of luciferase activity of Jurkat/FcγRIIIa/NFAT-Luc cells co-cultured with Daudi cells and serially diluted mAb in assay [1] of 0.034 µg/mL.

In turn, “rituximab G236A/S239D/I332E variant (antibody)” gave an EC50 of luciferase activity of Jurkat/FcγRIIIa/NFAT-Luc cells co-cultured with Daudi cells and serially diluted mAb in assay [1] of 0.016 µg/mL. In assay [2], this substance registered an EC50 of luciferase activity of Jurkat/FcγRIIa/NFAT-Luc cells co-cultured with Daudi cells and serially diluted mAb of 0.057 µg/mL.
